Article PMC8287954
Where “and” joins values, the source holds several entries; their conditions need not be identical. Identical values can stand only once. One block for each substance: values may come before it.

Key:
[1] = molecular target: Sp^1–117-Hs^253–294 chimera•Gemin2 (Schizosaccharomyces pombe | human | not stated) (UniProt Q09808); assay: SEC-MALS; Superdex 200 10/300 GL, 0.5 ml/min, room temperature (20°C), 50 mM HEPES-NaOH pH 7.5, 250 mM NaCl, 5 mM DTT; self-association of the SMN•G2 unit, (SMN•G2)n
[2] = molecular target: hsSMNΔ5(Y272C)•Gemin2, Q16637;O14893; assay: SEC-MALS; conditions: 20°C; peak concentration 0.8 µM; parent: 231 (188-454)
hsSMNΔ5(G279C)•Gemin2 = assay: SEC-MALS; conditions: 20°C; peak concentration 0.5 µM; parent: 231 (188-454)
hsSMNΔ5(S262I)•Gemin2 = assay: SEC-MALS; conditions: 20°C; peak concentration 0.5 µM; parent: 231 (188-454)
[3] = molecular target: hsSMNΔ5(M263R)•Gemin2, Q16637;O14893; assay: SEC-MALS; conditions: 20°C; peak concentration 0.8 µM; parent: 231 (188-454)
hsSMNΔ5(S266P)•Gemin2 = assay: SEC-MALS; conditions: 20°C; peak concentration 0.2 µM; parent: 231 (188-454)
[4] = molecular target: Ce^2–184-Sp^140–152 chimera•Gemin2 (Caenorhabditis elegans | Schizosaccharomyces pombe | not stated) (UniProt Q09808); assay: SEC-MALS; Superdex 200 10/300 GL, 0.5 ml/min, room temperature (20°C), 50 mM HEPES-NaOH pH 7.5, 250 mM NaCl, 5 mM DTT; self-association of the SMN•G2 unit, (SMN•G2)n
[5] = molecular target: hsSMNΔ5(M263T)•Gemin2, Q16637;O14893; assay: SEC-MALS; conditions: 20°C; peak concentration 0.5 µM; parent: 231 (188-454)
[6] = molecular target: hsSMNΔ5(L260S)•Gemin2, Q16637;O14893; assay: SEC-MALS; conditions: 20°C; peak concentration 0.3 µM; parent: 231 (188-454)
hsSMNΔ5(G275S)•Gemin2 = hsSMNΔ5(G275S)•Gemin2 (UniProt O14893); assay: SEC-MALS; conditions: 20°C; peak concentration 0.5 µM; parent: 231 (188-454)
[7] = molecular target: SMN (SMN•Gemin2 dimer) (Schizosaccharomyces pombe) (UniProt Q09808); conditions: cited from earlier work
[8] = molecular target: spSMN-GCN4(IL) chimera•Gemin2 (Schizosaccharomyces pombe | S. cerevisiae) (UniProt P0CU08); assay: SEC-MALS + AUC + other: SAXS; spSMN-GCN4 fusions in complex with Gemin2; SEC-MALS, SV-AUC and SAXS named together
hsSMNΔ5(S262G)•Gemin2 = assay: SEC-MALS; conditions: 20°C; peak concentration 0.3 µM; parent: 231 (188-454)

hsSMNΔ5•Gemin2 complex (from UniProt O14893) S266P, sequence (O14893 whole entry, looked up, stated change not applied, one chain of several): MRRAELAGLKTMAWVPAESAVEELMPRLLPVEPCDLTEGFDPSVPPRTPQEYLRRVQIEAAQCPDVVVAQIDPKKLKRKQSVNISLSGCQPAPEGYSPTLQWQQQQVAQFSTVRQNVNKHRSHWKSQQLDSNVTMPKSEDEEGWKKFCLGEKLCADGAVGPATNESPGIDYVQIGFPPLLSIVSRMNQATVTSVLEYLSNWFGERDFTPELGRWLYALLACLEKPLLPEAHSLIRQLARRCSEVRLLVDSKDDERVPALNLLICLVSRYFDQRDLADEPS
hsSMNΔ5(G275S)•Gemin2, sequence (O14893 whole entry, looked up, stated change not applied): as the sequence (O14893 whole entry, looked up, stated change not applied, one chain of several) above
hsSMNΔ5•Gemin2 complex (from UniProt O14893) S262G, sequence (O14893 whole entry, looked up, stated change not applied, one chain of several): as above
hsSMNΔ5•Gemin2 complex (from UniProt O14893) G279C, sequence (O14893 whole entry, looked up, stated change not applied, one chain of several): as above
hsSMNΔ5•Gemin2 complex (from UniProt O14893) G275S, sequence (O14893 whole entry, looked up, stated change not applied, one chain of several): as above
hsSMNΔ5•Gemin2 complex (from UniProt O14893) S262I, sequence (O14893 whole entry, looked up, stated change not applied, one chain of several): as above
hsSMNΔ5•Gemin2 complex (from UniProt O14893) L260S, sequence (Q16637 whole entry L260S, stated change not applied): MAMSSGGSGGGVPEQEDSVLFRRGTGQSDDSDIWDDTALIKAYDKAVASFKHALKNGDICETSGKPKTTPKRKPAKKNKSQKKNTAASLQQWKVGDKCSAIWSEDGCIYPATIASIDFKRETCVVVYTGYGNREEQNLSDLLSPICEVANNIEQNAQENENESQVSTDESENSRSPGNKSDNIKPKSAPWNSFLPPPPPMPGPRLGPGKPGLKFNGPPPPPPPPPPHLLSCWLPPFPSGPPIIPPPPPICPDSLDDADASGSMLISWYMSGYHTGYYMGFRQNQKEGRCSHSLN
hsSMNΔ5•Gemin2 complex (from UniProt O14893) L260S, sequence (O14893 12-280, stated change not applied): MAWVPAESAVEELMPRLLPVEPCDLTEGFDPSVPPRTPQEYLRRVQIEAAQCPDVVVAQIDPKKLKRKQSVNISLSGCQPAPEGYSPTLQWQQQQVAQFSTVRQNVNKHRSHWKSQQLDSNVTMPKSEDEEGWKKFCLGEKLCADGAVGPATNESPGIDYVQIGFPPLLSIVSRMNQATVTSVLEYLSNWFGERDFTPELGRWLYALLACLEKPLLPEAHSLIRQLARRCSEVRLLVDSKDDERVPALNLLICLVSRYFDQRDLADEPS
spSMN-GCN4(IL) chimera•Gemin2, sequence (P0CU08 whole entry, looked up, change not shown): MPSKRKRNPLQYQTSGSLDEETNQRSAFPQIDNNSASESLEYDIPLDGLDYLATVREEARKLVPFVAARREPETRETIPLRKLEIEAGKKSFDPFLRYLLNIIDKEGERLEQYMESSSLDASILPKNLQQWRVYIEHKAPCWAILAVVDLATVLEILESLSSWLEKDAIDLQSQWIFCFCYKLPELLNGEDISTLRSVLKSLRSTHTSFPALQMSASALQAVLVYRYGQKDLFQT
SMN (SMN•Gemin2 dimer), sequence (Q09808 whole entry): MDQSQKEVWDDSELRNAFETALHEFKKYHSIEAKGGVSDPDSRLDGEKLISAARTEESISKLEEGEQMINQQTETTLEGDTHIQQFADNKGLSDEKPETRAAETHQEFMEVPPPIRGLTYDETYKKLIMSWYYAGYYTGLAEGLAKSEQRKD
hsSMNΔ5•Gemin2 complex (from UniProt O14893) M263R, sequence (Q16637 whole entry M263R, stated change not applied): as the sequence (Q16637 whole entry L260S, stated change not applied) above, with S260L, M263R counted along it
hsSMNΔ5•Gemin2 complex (from UniProt O14893) M263R, sequence (O14893 12-280, stated change not applied): as the sequence (O14893 12-280, stated change not applied) above
hsSMNΔ5•Gemin2 complex (from UniProt O14893) M263T, sequence (Q16637 whole entry M263T, stated change not applied): as the sequence (Q16637 whole entry L260S, stated change not applied) above, with S260L, M263T counted along it
hsSMNΔ5•Gemin2 complex (from UniProt O14893) M263T, sequence (O14893 12-280, stated change not applied): as the sequence (O14893 12-280, stated change not applied) above
hsSMNΔ5•Gemin2 complex (from UniProt O14893) Y272C, sequence (Q16637 whole entry Y272C, stated change not applied): as the sequence (Q16637 whole entry L260S, stated change not applied) above, with S260L, Y272C counted along it
hsSMNΔ5•Gemin2 complex (from UniProt O14893) Y272C, sequence (O14893 12-280, stated change not applied): as the sequence (O14893 12-280, stated change not applied) above

stoichiometry N [1]: 4 and 8
Substance: Sp^1–117-Hs^253–294 chimera•Gemin2 (from UniProt Q09808 1-117; Q16637 253-294) (complex)

other: SEC-MALS Mw [2]: 78
Substance: hsSMNΔ5•Gemin2 complex (from UniProt O14893) Y272C

other: SEC-MALS Mw (hsSMNΔ5(G279C)•Gemin2): 586
Substance: hsSMNΔ5•Gemin2 complex (from UniProt O14893) G279C

other: SEC-MALS Mw (hsSMNΔ5(S262I)•Gemin2): 306
Substance: hsSMNΔ5•Gemin2 complex (from UniProt O14893) S262I

other: SEC-MALS Mw [3]: 113
Substance: hsSMNΔ5•Gemin2 complex (from UniProt O14893) M263R

other: SEC-MALS Mw (hsSMNΔ5(S266P)•Gemin2): 99
Substance: hsSMNΔ5•Gemin2 complex (from UniProt O14893) S266P

stoichiometry N [4]: 2
Substance: Ce^2–184-Sp^140–152 chimera•Gemin2 (from UniProt Q09808 140-152) (complex)

other: SEC-MALS Mw [5]: 115
Substance: hsSMNΔ5•Gemin2 complex (from UniProt O14893) M263T

other: SEC-MALS Mw [6]: 124
Substance: hsSMNΔ5•Gemin2 complex (from UniProt O14893) L260S

other: SEC-MALS Mw (hsSMNΔ5(G275S)•Gemin2): 58
Substance: hsSMNΔ5•Gemin2 complex (from UniProt O14893) G275S

Substance: SMN (SMN•Gemin2 dimer) (from UniProt Q09808)
Kd [7]: 1000 nM

stoichiometry N [8]: 2
Substance: spSMN-GCN4(IL) chimera•Gemin2 (from UniProt P0CU08 1-235) (complex)

other: SEC-MALS Mw (hsSMNΔ5(S262G)•Gemin2): 275
Substance: hsSMNΔ5•Gemin2 complex (from UniProt O14893) S262G
